Measurements taken from patent US12570975B2, “Composition for diagnosis or treatment of a condition associated with increased activity of EIF4E comprising an EIF4E inhibitor” (SoVarGen Co., Ltd., priority 2019, dated 2026).

What was measured:
FMCD animal models = assay: Metformin treatment of FMCD animal models, video-EEG seizure analysis; format: in vivo, mouse
From the text: In this experiment, metformin was intraperitoneally injected at a dose of […] into the FMCD animal models of Example 1 from P14 to P56 for early treatment and from P84 to P114 for late treatment.

[1] = tested on: FMCD and epilepsy animal models (mTOR-p.C1483Y, mTOR-p.L2427P); assay: Marble burying test, FMCD epilepsy models; format: in vivo, mouse; settings: mU6-sheIF4E models compared to mU6-shscramble models
Experimental: A mouse was placed in the cage.
(§1) Experiments were performed on the FMCD and epilepsy animal models (mTOR-p.C1483Y, mTOR-p.L2427P) of Example 7-1 and the control normal animal models (mTOR-WT). The same sheIF4E as that described in Example 2 was used. Week 2 after sheIF4E injection, the handling was performed in the animals. Week 3 after sheIF4E injection, the animals were subjected to the behavioral tests.
(§2) The epilepsy animal models were subjected to the substantially same behavioral abnormality assay as in Example 6. The results are depicted in FIGS. 28 and 29.
(§3) Briefly, ASO #77 was administered by ICV injection to the FMCD and epilepsy animal models were generated with the pCIG-mTOR mutant-IRES-EGFP of Example 1. ASO #77 was evaluated for therapeutic potential for neuropsychiatric disorder accompanying the FMCD epilepsy animal models in the substantially same manner as in Example 6.

[2] = tested on: FMCD epilepsy animal models; assay: Cortical dysplasia, neuron size and synaptic spine density in sheIF4E FMCD mice; format: in vivo, mouse
Experimental: Then, mice born following the electroporation of Example 1-6 were analyzed for neuronal cell size and synaptic spine density. Neuronal cell size was measured in ImageJ software (http://rsbweb.nih.gov/ij/). Synaptic spines were counted using a 63× objective lens. Ten basal dendrites were acquired per subject, and measured in electroporated cells expressing a GFP reporter, using manual counting. For neuronal cell size (FIG. 12), mouse brain tissues at postnatal day 21 were acquired and the size of GFP (green)-positive mutant cells (shScramble or sheIF4E expressed) was measured. For synaptic spine density (FIG. 13), mouse brain tissues at postnatal day 21 were acquired and synaptic spines of basal dendrites were counted in GFP (green)-positive mutant cells (shScramble or sheIF4E expressed).
In addition, for cortical dysplasia (FIG. 11), mouse brain tissues at postnatal day 7 of Example 2-1 were acquired and distributions of GFP (green)-positive mutant cells (shScramble or sheIF4E expressed) in the cortex were detected (n=5 in each case. Scale bar=100 μm. Mean±SEM).

[3] = tested on: FMCD and epilepsy animal models (mTOR-p.C1483Y, mTOR-p.L2427P); format: in vivo, mouse
Experimental: (§4) Behaviors were recorded and analyzed using EthoVision XT (Noldus).
as §1, §2, §3

[4] = tested on: FMCD and epilepsy animal models (mTOR-p.C1483Y, mTOR-p.L2427P); assay: Sucrose preference test, FMCD epilepsy models; format: in vivo, mouse; settings: mU6-sheIF4E models compared to mU6-shscramble models
Experimental: Each of mice was habituated for 3-5 days in a cage with two selectable water bottles presented. Thereafter, the mice were each placed in the same cage as the habituation cage at the day of experiment. The mice were presented with two dual bottles, one containing tap water and the other containing 1% sucrose solution. Water and sucrose solution intake was measured after 24 hours and sucrose preference was calculated according to volume of sucrose intake/total volume of fluid intake×100%.
The same sheIF4E as that described in Example 2 was used. Week 2 after sheIF4E injection, the handling was performed in the animals. Week 3 after sheIF4E injection, the animals were subjected to the behavioral tests.
The epilepsy animal models were subjected to the substantially same behavioral abnormality assay as in Example 6.
as §3

[5] = tested on: FMCD and epilepsy animal models (mTOR-p.C1483Y, mTOR-p.L2427P); assay: 3-Chamber test (social interaction), FMCD epilepsy models; format: in vivo, mouse; settings: mU6-sheIF4E models compared to mU6-shscramble models
Experimental: The 3-Chamber test measures social interaction and preference for social novelty. This apparatus consisted of three chambers with dimensions of 12×20×26 cm for the center chamber and dimensions of 14×20×26 cm for the opposite side chambers. Each of the opposite side chambers included a plastic cage (11 cm in diameter, 2.15 cm in height) for an object or stranger mouse in a corner. This experiment consisted of three sessions of habituation (10 min), exploring object/mouse (10 min), and exploring familiar/new mouse (10 min). In the second session, a WT stranger mouse was randomly placed in a plastic cage while the opposite plastic cage was empty. The mouse was allowed to freely explore the whole apparatus. The time spent in each chamber was measured and then used for the subsequent social interaction test. In the last session, a new WT stranger was placed in the empty plastic cage.
Experiments were performed on the FMCD and epilepsy animal models (mTOR-p.C1483Y, mTOR-p.L2427P) of Example 7-1 and the control normal animal models (mTOR-WT). […]
as §3

eIF4E [6] = assay: Western blot of eIF4E knockdown by sheIF4E in cell lysates (Neuro2A); format: cell-based, mouse; settings: vs shScramble
Experimental: The pSicoR vector digested with HpaI and XhoI restriction enzymes was ligated with the shScramble or the sheIF4E sequence in the presence of ligase to construct pSicoR-shScramble and pSicoR-sheIF4E vectors, respectively. Neuro2A cells were cultured and transfected with pSicoR to evaluate the translational downregulation of eIF4E in the same manner as in Example 1.2.
Construction of pCIG-MTOR mutant-IRES-GFP; mU6-shScramble or pCIG-MTOR mutant-IRES-GFP; mU6-sheIF4E vector and the inhibitory activity of sheIF4E against eIF4E were identified by western blot analysis using cell lysates.

[7] = tested on: FMCD animal models (mTOR p.C1483Y, mTOR p.L2427P); assay: Video seizure monitoring in FMCD animal models with sheIF4E-mediated eIF4E knockdown; format: in vivo, mouse
Experimental: In FMCD animal models, the onset of epilepsy starts at postnatal day 21 on average and has been completed within postnatal day 50. Video EGG monitoring was conducted from 3 weeks after birth. EGG signals were recorded for 12 hours per day three times in a week from postnatal day 21 to postnatal day 120. From the 12-hour video recordings, the number and length of seizures were measured.
From the 12-hours video recordings, the number and length of seizures were measured (FIG. 10).

[8] = tested on: FMCD and epilepsy animal models (mTOR-p.C1483Y, mTOR-p.L2427P); assay: Social avoidance test, FMCD epilepsy models; format: in vivo, mouse; settings: mU6-sheIF4E models compared to mU6-shscramble models
Experimental: The arena was a black box (400×400 mm).
as §1, §2, §3

ADK, IRSp53, and CREB1 = assay: Immunostaining for ADK, IRSp53 and CREB1 in sheIF4E FMCD mice; format: in vivo, mouse; settings: mTOR p.Cys1483Tyr and p.Leu2427Pro mice, compared to shScramble mice
From the text: Therefore, the present inventors performed additional immunostaining in order to investigate in vivo knockdown effect on the expression of ADK, IRSp53, and CREB1 in the FMCD mice, and confirmed significant reduced expression of the genes (FIG. 9e). In the brain tissues at postnatal day 21 from the animal models established using pCIG-MTOR mutant-IRES-GFP; mU6-sheIF4E vector in the same manner as in Examples 1-3 and 3-1, the expression of ADK, IRSp53, and CREB1 was decreased with decreasing of eIF4E expression.
In order to examine whether sheIF4E-mediated in-vivo knockdown of eIF4E led to the expression downregulation of eIF4E-sensitive genes, expression of eIF4E-sensitive genes was analyzed by immunofluorescence. The immunofluorescence results are depicted in FIG. 9e. The animal models with the sheIF4E-mediated eIF4E knockdown characteristic and the shScramble mice were substantially the same as in Example 2-1.

[9] = tested on: FMCD and epilepsy animal models (mTOR-p.C1483Y, mTOR-p.L2427P); assay: Light & dark box test, FMCD epilepsy models; format: in vivo, mouse; settings: mU6-sheIF4E models compared to mU6-shscramble models
Experimental: as §4, §1, §2, §3

eIF4E [10] = assay: Immunostaining for eIF4E in sheIF4E FMCD mice; format: in vivo, mouse; settings: brain tissue at postnatal day 21
From the text: For the animal model, prepared in Example 2-1, in which eIF4E was knock-downed using sheIF4E, after embryos that had been electroporated with a plasmid carrying an mTOR mutant gene at embryonic day 14 (E14), in the same manner as in U.S. Pat. No. 9,629,346, were born, the mice expressing fluorescence were screened by flashlight (Electron Microscopy Science, USA).

For `CN(C)C(=N)N=C(N)N` [metformin], the seizure onset (FMCD animal models; early treatment P14 to P56, intraperitoneal, 200 m/kg) was “prevented seizure onset”, the “seizure frequency and duration” value (FMCD animal models; epilepsy animal models, FIGS. 14 and 15) was “reduction of seizure frequency and duration” and the seizure frequency (FMCD animal models; late treatment P84 to P114, intraperitoneal, 200 m/kg) was “suppressed seizure frequency”.

B1: sheIF4E: shRNA against eIF4E, sense SEQ ID NO: 203 and antisense SEQ ID NO: 204, expressed from mU6 promoter in pCIG-mTOR mutant vector (nucleic acid)
sense: TCGATTGATCTCTAAGTTTGATTTCAAGAGAATCAAACTTAGAGATCAATCGTTTTTTCTCGA
antisense: TCGAGAAAAAACGATTGATCTCTAAGTTTGATTCTCTTGAAATCAAACTTAGAGATCAATCGA
With B1 the “number of buried marbles (repetitive behavior)” value [1] was “increased”, the cortical dysplasia ([2]; brain tissue at postnatal day 7) was “remarkably reduced” and the defective neuronal migration ([2]; mTOR mutant mice) was “significantly alleviated”. For the same molecule, the “decreased synaptic spine density” value ([2]; postnatal day 21) was “rescued”, the “hypertrophic soma (neuronal cell size)” value ([2]; postnatal day 21) was “rescued” and the “time spent in center (index of anxiety)” value ([3]; mU6-sheIF4E models compared to mU6-shscramble models) was “increased”. For the same molecule, the “dyskinesia (behavior test)” value ([3]; mouse, in vivo) was “no dyskinesia”, the “% sucrose preference” value [4] was “increased” and the “time spent in sniffing zone (social ability)” value [5] was “increased”. The “knockdown of eIF4E by western blot” value (eIF4E [6]) was “efficient knockdown”, the “frequency and time of seizure” value ([7]; FMCD animal models in which epilepsy was generated) was “remarkably decreased” and the spontaneous seizures ([7]; FMCD epilepsy mice) was “almost completely rescued”. The animals with seizure ([7]; mTOR p.L2427P mutation, video recordings until postnatal day 120) was “five of 20”, the “time spent to interact with the stranger mouse (social ability and depression)” value [8] was “increased” and the “expression of eIF4E sensitive genes ADK, IRSp53, and CREB1” value (ADK, IRSp53, and CREB1) was “significantly reduced”. The “time spent in center (residence time within the light box)” value [9] was “increased” and the “eIF4E expression in sheIF4E-expressing neurons (immunostaining)” value (eIF4E [10]) was “significantly reduced”.
